From paper PMC4943463

Biological target: A3B-CTD (APOBEC3B C-terminal domain, wild type) (Homo sapiens, UniProt Q9UH17 187-382)
Assay: NMR titration

Sequence of A3B-CTD (APOBEC3B C-terminal domain, wild type) (Q9UH17 187-382): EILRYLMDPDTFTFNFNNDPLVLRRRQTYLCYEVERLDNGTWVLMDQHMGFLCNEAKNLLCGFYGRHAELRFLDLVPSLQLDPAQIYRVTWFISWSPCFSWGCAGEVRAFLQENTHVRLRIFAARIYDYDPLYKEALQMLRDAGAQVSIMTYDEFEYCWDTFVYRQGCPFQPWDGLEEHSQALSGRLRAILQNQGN

Which Kd does the source give for ATTTUATTT (ssDNA, deoxyuridine at position 5 (DNA oligonucleotide, U in place of target C)) [9-nt U-containing oligonucleotide ATTTUATTT] here?
Its Kd is 119 ± 26 µM.
